# Patent US20240042018A1 (University of Washington, published 2024)
# T1: I53_dn5B trimer
# T1 chain: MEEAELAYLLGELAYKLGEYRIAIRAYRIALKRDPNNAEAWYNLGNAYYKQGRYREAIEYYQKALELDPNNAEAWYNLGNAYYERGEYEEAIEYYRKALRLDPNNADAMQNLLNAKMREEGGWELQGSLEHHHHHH
# Legend:
# I53_dn5B trimer [1] = biological target: T1, I53_dn5B trimer; assay: in vitro nanoparticle assembly, SEC
# I53_dn5B trimer [2] = biological target: T1, I53_dn5B trimer; assay: nanoparticle assembly grade, Table 3
# I53-50B.4PT1 pentamer = assay: nanoparticle assembly grade, Table 3
binder,measurement,setting,value
I53_dn5A_2C2kPEG pentamer (designed binder) MGKYDGSKLRIGILHARGNAEIILALVLGALKRLQEFGVKRENIIIETVPGSFELPYGSKLFVEKQKRLGKPLDAIIPIGVLIRGCTPHFDYIADSTTHQLMKLNFELGIPVIFGVITADTCEQAEARAGLIEGKMHNHGEDWGAAAVEMATKFNGGWELQLEGSHHHHHH,binding result,I53_dn5B trimer [1],binds
"I53_dn5A_S84C_D120C pentamer coupled to 5 kDa PEG (designed binder, 5 kDa PEG-maleimide on Cys84 and Cys120) MGKYDGSKLRIGILHARGNAEIILALVLGALKRLQEFGVKRENIIIETVPGSFELPYGSKLFVEKQKRLGKPLDAIIPIGVLIRGCTPHFDYIADSTTHQLMKLNFELGIPVIFGVITADTCEQAEARAGLIEGKMHNHGEDWGAAAVEMATKFNGGWELQLEGSHHHHHH",binding result,I53_dn5B trimer [1],binds
I53_dn5A_S84C_D120C pentamer coupled to 1 kDa PEG (designed binder) MGKYDGSKLRIGILHARGNAEIILALVLGALKRLQEFGVKRENIIIETVPGSFELPYGSKLFVEKQKRLGKPLDAIIPIGVLIRGCTPHFDYIADSTTHQLMKLNFELGIPVIFGVITADTCEQAEARAGLIEGKMHNHGEDWGAAAVEMATKFNGGWELQLEGSHHHHHH,binding result,I53_dn5B trimer [1],binds
I53_dn5Acp7 PAS pentamer (designed binder) MGSHHHHHHGSDEQAEERAGTKAGNHGEDWGAAAVEMATKFNGSGGSGKYDGSKLRIGILHARGNAEIILELVLGALKRLQEFGVKRENIIIETVPGSFELPYGSKLFVEKQKRLGKPLDAIIPIGVLIRGSTAHFDYIADSTTHQLMKLNFELGIPVIFGVLTTESGGSASPAAPAPASPAAPAPSAPAAASPAAPAPASPAAPAPSAPAAASPAAPAPASPAAPAPSAPAA,binding result,I53_dn5B trimer [1],binds
I53_dn5Acp7 pentamer with ELP fused to the C terminus (designed binder) MGSHHHHHHGSDEQAEERAGTKAGNHGEDWGAAAVEMATKFNGSGGSGKYDGSKLRIGILHARGNAEIILELVLGALKRLQEFGVKRENIIIETVPGSFELPYGSKLFVEKQKRLGKPLDAIIPIGVLIRGSTAHFDYIADSTTHQLMKLNFELGIPVIFGVLTTES,binding result,I53_dn5B trimer [1],binds
"SEQ ID NO 49 (I53_dn5A_3gly) (designed binder, N-linked glycans at sequons 83-NET-85; 118-NDT-120; 130-NAT-132) KYDGSKLRIGILHARGNAEIILELVLGALKRLQEFGVKRENIIIETVPGSFELPYGSKLFVEKQKRLGKPLDAIIPIGVLIRNETAHFDYIADSTTHQLMKLNFELGIPVIFGVLTTNDTEQAEERAGTNATNHGEDWGAAAVEMATKFNLEEQKLISEEDLHHHHHH",binding result,I53_dn5B trimer [2],binds
"SEQ ID NO 52 (I53_dn5A_2gly) (designed binder, N-linked glycans at sequons 83-NDT-85; 130-NAT-132) KYDGSKLRIGILHARGNAEIILELVLGALKRLQEFGVKRENIIIETVPGSFELPYGSKLFVEKQKRLGKPLDAIIPIGVLIRNDTAHFDYIADSTTHQLMKLNFELGIPVIFGVLTTESDEQAEERAGTNATNHGEDWGAAAVEMATKFNLEEQKLISEEDLHHHHHH",binding result,I53_dn5B trimer [2],binds
"SEQ ID NO 50 (I53_dn5A_3gly) (designed binder, N-linked glycans at sequons 84-NDT-86; 120-NET-122; 131-NGT-133) KYDGSKLRIGILHARGNAEIILELVLGALKRLQEFGVKRENIIIETVPGSFELPYGSKLFVEKQKRLGKPLDAIIPIGVLIRGNDTHFDYIADSTTHQLMKLNFELGIPVIFGVLTTESNETAEERAGTKNGTHGEDWGAAAVEMATKFNLEEQKLISEEDLHHHHHH",binding result,I53_dn5B trimer [2],binds
"SEQ ID NO 55 (I53_dn5A_2gly) (designed binder, N-linked glycans at sequons 120-NET-122; 130-NAT-132) KYDGSKLRIGILHARGNAEIILELVLGALKRLQEFGVKRENIIIETVPGSFELPYGSKLFVEKQKRLGKPLDAIIPIGVLIRGSTAHFDYIADSTTHQLMKLNFELGIPVIFGVLTTESNETAEERAGTNATNHGEDWGAAAVEMATKFNLEEQKLISEEDLHHHHHH",binding result,I53_dn5B trimer [2],binds
"SEQ ID NO 53 (I53_dn5A_2gly) (designed binder, N-linked glycans at sequons 84-NDT-86; 131-NGT-133) KYDGSKLRIGILHARGNAEIILELVLGALKRLQEFGVKRENIIIETVPGSFELPYGSKLFVEKQKRLGKPLDAIIPIGVLIRGNDTHFDYIADSTTHQLMKLNFELGIPVIFGVLTTESDEQAEERAGTKNGTHGEDWGAAAVEMATKFNLEEQKLISEEDLHHHHHH",binding result,I53_dn5B trimer [2],binds
"SEQ ID NO 51 (I53_dn5A_3gly) (designed binder, N-linked glycans at sequons 84-NDT-86; 118-NDT-120; 130-NAT-132) KYDGSKLRIGILHARGNAEIILELVLGALKRLQEFGVKRENIIIETVPGSFELPYGSKLFVEKQKRLGKPLDAIIPIGVLIRGNDTHFDYIADSTTHQLMKLNFELGIPVIFGVLTTNDTEQAEERAGTNATNHGEDWGAAAVEMATKFNLEEQKLISEEDLHHHHHH",binding result,I53_dn5B trimer [2],binds
"SEQ ID NO 70 (I53-50A_4gly) (designed binder, N-linked glycans at sequons 69-FSNET-73; 81-NAT-83; 96-NFT-98; 102-NVT-104) EELFKKHKIVAVLRANSVEEAIEKAVAVFAGGVHLIEITFTVPDADTVIKALSVLKEKGAIIGAGTVFSNETCRKAVESNATFIVSPHLDEEISNFTKEKNVTYMPGVMTPTELVKAMKLGHTILKLFPGEVVGPQFVKAMKGPFPNVKFVPTGGVNLDNVCEWFKAGVLAVGVGSALVKGTPDEVREKAKAFVEKIRGC",binding result,I53-50B.4PT1 pentamer,binds
